In paper PMC5667506, “Potent and selective inhibition of SH3 domains with dirhodium metalloinhibitors” (Chemical Science, 2015):
Entries after “also recorded” stand apart in the source; their conditions may differ. Where two headings read alike, the source gives them in different places. Rh2(OAc)3 = dirhodium(II) triacetate, bound to the side-chain carboxylate

Tests used:
Lyn SH3 domain = target: T1, Lyn SH3 domain (Homo sapiens, UniProt P07948); test: ITC binding of metallopeptides to Lyn SH3 domain; conditions: 25 °C
T1 construct: The lyn SH3 domain was amplified by PCR using Phusion DNA polymerase; GST (N, cleaved yes); made in house; host or cells: E. coli BL21 (DE3)
Source text: The His96 is unique among Src-family sequences, and the His78 appears only in Hck and Lck. Individual amino-acid alterations are the only factors that might distinguish the nearly identical secondary structures and peptide-binding preferences of Src-family SH3 domains (cf. Fig. 1a and b). Based on a Src-family SH3-binding sequence (VSL12),[37] known to bind with similar affinity across Src-family SH3 domains,[38] we made metallopeptides with rhodium in different sites near the beginning of the SH3-binding peptide. […] The optimal metallopeptide, S2E^Rh, bound to Lyn with 6 nM affinity. The accuracy of ITC data is reduced for C values >1000 (C = [protein]/K d). Under these conditions the distribution of data points on the isotherm reduces the precision of the global fit. Since the enthalpic contributions to binding in the formation of the complexes described in this work were high, we were able to use a low protein concentration (4 μM) which ensured that our C values were well below this upper range. […] In broad terms, the thermodynamics—favourable enthalpy and unfavourable entropy—are consistent with previous examinations of peptide–SH3 binding (see Table S1 ^† for thermodynamic data).[39] Moving the location of the rhodium center toward the N-terminus, away from the histidine, led to a drop in binding affinity. The N13D^Rh metallopeptide, a convenient negative control with the rhodium center too far for histidine interactions, binds with micromolar activity, similar to simple SH3 binding of the parent peptide. We conclude that the vast affinity improvement is due to rhodium coordination to unique histidine residue(s).
(§1) All chemical reagents were purchased from Sigma-Aldrich and were used without further purification.
(§2) Peptide synthesis. All peptides were synthesized manually or with an AAPPTEC APEX 396 Automated Multipeptide Synthesizer using standard solid-phase Fmoc protocols.1,2 Peptides were prepared as C-terminal amides using Rink amide MBHA resin (AAPPTEC) and were acetylated at the N-terminus prior to cleavage from the resin. Peptides and metallopeptides were purified by reverse-phase HPLC.
(§3) HPLC separation. Reverse-phase HPLC was performed on a Shimadzu CBM-20A instrument with Phenomenex Jupiter 4μ Proteo 90A (250 × 15 mm preparative) and Phenomenex Jupiter 4μ Proteo 90A (250 × 4.6 mm analytical) columns. The columns were eluted with a gradient of acetonitrile in water (10-90%) (flow rates of 8 mL/min and 1 mL/min for preparative and analytical columns, respectively). Trifluoroacetic acid (0.1%) was added to all eluents. […]
(§4) ITC analysis. ITC experiments were carried out on a VP-ITC instrument (MicroCal) at 25 °C. Titrations of 275 μM peptide into 18 μM SH3 domain proteins were used for all titrations, except for the titration of S2ERh into Lyn SH3 domain, where the lower concentrations of 69 µM S2ERh peptide and 4 µM Lyn SH3 were used to attain a c-value for the titration within the accepted limts for ITC experiments ([…]).3
(§5) Heats of dilutions were measured independently for each experiment by titrating 275 μM peptide into buffer (20 mM phosphate buffer, pH 7, 150 mM NaCl, 1 mM EDTA). All experimental data were fitted using a one set of sites binding model in Origin software (MicroCal) except for the data with Hck SH3 domain. With Hck only, the non-peptide specific binding of dirhodium tetraacetate to Hck SH3 domain could not be treated as negligible, despite the very weak interaction (88 µM), due to the larger enthalpy contribution observed for non-specific binding to this SH3 domain, so the titrations of peptide into Hck were fitted using a 2 set of sites binding model where the stoichiometry for the second set of sites was fixed at 2.0. […]
(§6) Mass spectrometry. ESI-MS was performed on a Bruker Daltonics micrOTOF instrument.
Known compounds and proteins. Several metallopeptides (S2ERh, L3ERh, R5ERh, and 13DRh) were reported previously and […]

Hck SH3 domain = target: T2, Hck SH3 domain (Homo sapiens, UniProt P08631); test: ITC binding to Hck SH3 domain (two-sets-of-sites fit); conditions: 25 °C, high affinity specific site
T2 construct: The hck SH3 domain was amplified by PCR using Phusion DNA polymerase; GST (N, cleaved yes); made in house; host or cells: E. coli BL21 (DE3)
Experimental: as §1, §2, §3, §4, §5, §6
Known compounds and proteins. Several metallopeptides (S2ERh, L3ERh, R5ERh, and 13DRh) were reported previously and were prepared by known protocols;4 alkyne-diazo 3,5 3-azido-7-hydroxycoumarin6 were synthesized following reported procedures; fyn, yes, lck, and src SH3 protein domains were prepared following published procedures.5 Abl, hck, and lyn SH3 domain plasmids were adapted from the previously reported genes;7 the gene templates were obtained from Addgene, ID […]
Table S1. Table of the thermodynamic parameters for binding of metallopeptides to SH3 domains, determined by isothermal […]
Protein Peptide Stoichiometry Kd ΔH -TΔS ΔG
(nM) (kcal mol-1) (kcal mol-1) (kcal mol-1)
* The binding isotherms for metallopeptide interactions with Hck were fitted using a two -sets-of-sites model with the stoichiometry for the second set of sites fixed to 2.0. The second set of binding sites was used to account for the weak, but not negligable, binding of the peptide to another surface of Hck SH3 domain, presumably through non-specific interactions of the dirhodium tetraacetate group. The thermodynamics for the high affinity specific binding site interaction are provided in this

[1] = target: T3, Full-length Lyn kinase (GST-tagged Lyn B) (Homo sapiens, UniProt P07948); test: Lyn kinase activation assay (ADP-Glo Kinase Assay); type: biochemical; conditions: 74 nM Lyn, 5 min
T3 construct: Full-length Lyn kinase (74 nM) was treated with substrate peptide and ATP; purchased Promega
Experimental: We examined phosphorylation of a peptide substrate at low enzyme concentration (0.074 μM) and short reaction time (t = 5 min) to minimize the alternative autophosphorylation activation pathway (Fig. 6). Kinase activation with traditional ligands has typically required high ligand concentrations (∼1 mM) to overcome the intramolecular nature of the SH3–kinase domain interaction.
Fig. 6 Activation of Lyn kinase activity by a metallopeptide, S2E^Rh, and the parent peptide, S2E. […] Full-length Lyn kinase (74 nM) was treated with substrate peptide and ATP. Kinase activity was measured after 5 min in an adaptation of reported methods.[5] See ESI ^† for details.
(§7) All chemical reagents were purchased from Sigma-Aldrich and were used without further purification. […]
Kinase assay. ATP turnover by Lyn was measured using the ADP-GloTM Kinase Assay (Promega) according to the manufacturer’s protocol. Briefly, final concentrations of 72 μM ATP, 74 nM Lyn (GST-tagged Lyn B), and 240 μM substrate peptide (all from Promega) were combined in buffer (40 mM Tris, 50 μM dithiothreitol, 2 mM MnCl2 and 0.1 mg/mL BSA at pH 7.5) with a solution of the desired treatment (or control) in the same buffer for a final reaction volume of 5 µL. The kinase reaction was allowed to proceed at room temp. for 5 min from addition of ATP before the start of the ADP-Glo protocol halted the reaction. Chemiluminescence data were acquired on a Tecan Infinite M1000 microplate reader in white 384 well low volume plates (Corning Costar 3674) with an integration time of 250 ms per well. […]

Abl SH3 domain = target: T4, Abl SH3 domain (Homo sapiens, UniProt P00519); test: ITC binding to Abl SH3 domain; conditions: for -TΔS / ΔG / ΔH / Kd: 25 °C
T4 construct: The abl SH3 domain was amplified by PCR using Phusion DNA polymerase; GST (N, cleaved yes); made in house; host or cells: E. coli BL21 (DE3)
Experimental: as §1, §2
(§8) HPLC separation. Reverse-phase HPLC was performed on a Shimadzu CBM-20A instrument with Phenomenex Jupiter 4μ Proteo 90A (250 × 15 mm preparative) and Phenomenex Jupiter 4μ Proteo 90A (250 × 4.6 mm analytical) columns. The columns were eluted with a gradient of acetonitrile in water (10-90%) (flow rates of 8 mL/min and 1 mL/min for preparative and analytical columns, respectively). Trifluoroacetic acid (0.1%) was added to all eluents.
(§9) FPLC separation. Analytical FPLC was performed on an ÄKTA instrument with Superdex Peptide PE 7.5/300 column. The column was equilibrated with buffer (150 mM NaCl, 50 mM Tris, pH 7.0) at flow rate of 0.2 mL/min.
as §4, §5, §6
(§10) Known compounds and proteins. Several metallopeptides (S2ERh, L3ERh, R5ERh, and 13DRh) were reported previously and were prepared by known protocols;4 alkyne-diazo 3,5 3-azido-7-hydroxycoumarin6 were synthesized following reported procedures; fyn, yes, lck, and src SH3 protein domains were prepared following published procedures.5 Abl, hck, and lyn SH3 domain plasmids were adapted from the previously reported genes;7 the gene templates were obtained from Addgene, ID

Abl = target: Abl; parameters: method as in PMID 8718852; conditions: read-out: affinity for Abl; cited from earlier work
Yes SH3 domain = target: T5, Yes SH3 domain (Homo sapiens, UniProt P07947); test: ITC binding to Yes SH3 domain
T5 construct: fyn, yes, lck, and src SH3 protein domains were prepared following published procedures; made in house
Experimental: as §1, §2, §8, §9, §4, §5, §6, §10

Lck SH3 domain = target: T6, Lck SH3 domain (Homo sapiens, UniProt P06239); test: ITC binding to Lck SH3 domain; conditions: 25 °C
T6 construct: fyn, yes, lck, and src SH3 protein domains were prepared following published procedures; made in house
Experimental: as §7, §4, §5
Known compounds and proteins. […]

[2] = Yes SH3, ITC, 25 °C, read-out: SH3 Kd

T2 sequence (P08631 77-139): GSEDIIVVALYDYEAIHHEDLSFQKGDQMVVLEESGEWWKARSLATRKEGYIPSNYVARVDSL
T1 sequence (P07948 62-121): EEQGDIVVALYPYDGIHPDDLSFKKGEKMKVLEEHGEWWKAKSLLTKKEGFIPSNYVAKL
T4 sequence (P00519 60-121): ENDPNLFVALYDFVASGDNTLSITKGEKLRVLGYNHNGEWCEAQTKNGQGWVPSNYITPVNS
T6 sequence (P06239 61-121 limits assumed): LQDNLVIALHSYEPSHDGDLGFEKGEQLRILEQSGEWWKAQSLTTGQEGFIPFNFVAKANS
T5 sequence (P07947 91-152 limits assumed): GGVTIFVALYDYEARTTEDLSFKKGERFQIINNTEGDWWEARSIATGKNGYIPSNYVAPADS
T3 sequence (P07948 1-491 isoform P07948-2): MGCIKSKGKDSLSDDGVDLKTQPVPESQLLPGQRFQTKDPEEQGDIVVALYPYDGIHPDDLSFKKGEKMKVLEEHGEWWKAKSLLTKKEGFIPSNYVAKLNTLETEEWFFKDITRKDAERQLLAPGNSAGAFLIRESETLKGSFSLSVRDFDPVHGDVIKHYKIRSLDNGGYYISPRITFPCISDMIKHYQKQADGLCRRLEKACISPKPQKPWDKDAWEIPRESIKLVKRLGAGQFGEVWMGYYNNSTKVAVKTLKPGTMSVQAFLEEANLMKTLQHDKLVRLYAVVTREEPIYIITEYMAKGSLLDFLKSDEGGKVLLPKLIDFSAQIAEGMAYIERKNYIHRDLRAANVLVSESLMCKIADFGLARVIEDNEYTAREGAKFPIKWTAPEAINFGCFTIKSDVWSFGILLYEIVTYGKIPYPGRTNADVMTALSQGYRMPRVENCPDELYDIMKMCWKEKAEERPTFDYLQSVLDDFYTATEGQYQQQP

With `CC(=O)[O-].CC(=O)[O-].CC(=O)[O-].CC(=O)[O-].[Rh+2].[Rh+2]` [Rh2(OAc)4, reference compound] the “-TΔS” value (Lyn SH3 domain) was 1.0 kcal/mol, the Kd (Lyn SH3 domain) was 150000 nM and the ΔG (Lyn SH3 domain) was -5.2 kcal/mol. The ΔH (Lyn SH3 domain) was -6.3 kcal/mol, the “-TΔS” value (Hck SH3 domain) was -1.0 kcal/mol and the Kd (Hck SH3 domain) was 89000 nM. The ΔG (Hck SH3 domain) was -5.5 kcal/mol, the ΔH (Hck SH3 domain) was -4.5 kcal/mol and the “Lyn kinase activation” value [1] was “no activation; also recorded: had no effect on kinase activity”.
For APTE^RhSPPPPP [p40-Y4E^Rh], the Stoichiometry (Abl SH3 domain) was 1.2, the “-TΔS” value (Abl SH3 domain) was 5.3 kcal/mol and the ΔG (Abl SH3 domain) was -7.0 kcal/mol. It also gave a ΔH (Abl SH3 domain) of -12.3 kcal/mol.
In the case of APTYSPPPPP [p40], the Kd (Abl) is given as 400 nM.
For “E^RhPTYSPPPPP (Ac-E(Rh2(OAc)3)PTYSPPPPP-NH2; also: metal complex: Glu1 carboxylate bound to dirhodium(II) triacetate) [p40-A1E^Rh]”, the Kd (Abl SH3 domain) was 22 nM.
With E^RhPTYSPPPPP [p40-A1E^Rh] the Stoichiometry (Abl SH3 domain) was 1.0, the “-TΔS” value (Abl SH3 domain) was 8.9 kcal/mol and the ΔG (Abl SH3 domain) was -10.5 kcal/mol. It also gave a ΔH (Abl SH3 domain) of -19.4 kcal/mol.
“L3E^Rh: rhodium(II) metallopeptide based on Src-family SH3-binding sequence (VSL12), rhodium at residue 3 (VSEARRPLPPLPN; N-terminal acetyl, C-terminal amide)” showed a Kd (Lyn SH3 domain) of 30 nM, a Kd (Hck SH3 domain) of 52 nM and a Kd (Hck SH3 domain; listed as L3ERh) of 22 nM. It also gave a Kd (Yes SH3 domain; [2]) of 3740 nM.
With “N13D^Rh: negative control metallopeptide with the rhodium center too far for histidine interactions (VSLARRPLPPLPD; N-terminal acetyl, C-terminal amide)” the Kd (Lyn SH3 domain) was 1200 nM, the Kd (Hck SH3 domain) was 544 nM and the Kd (Lck SH3 domain) was 239 nM. The Kd (Yes SH3 domain; Yes SH3, ITC, 25 °C, listed as N13DRh, read-out: SH3 Kd) was 238 nM, the Kd (Yes SH3 domain; [2]) was 301 nM and the Kd (Yes SH3 domain; Yes SH3, unit inferred, read-out: Affinity of designed rhodium(II) metallopeptides (Fig. 1d)) was 299 nM. For the same molecule, the Kd (Abl SH3 domain) was 8850 nM.
“P12D^Rh: metallopeptide with the rhodium core moved to the 12th residue (VSLARRPLPPLDN; N-terminal acetyl, C-terminal amide)” showed a Kd (Hck SH3 domain) of 2320 nM and a Kd (Lck SH3 domain) of 79 nM.
For “R5E^Rh: rhodium(II) metallopeptide based on Src-family SH3-binding sequence (VSL12), rhodium at residue 5; catalyst for Yes SH3 modification (VSLAERPLPPLPN; N-terminal acetyl, C-terminal amide)”, the Kd (Lyn SH3 domain) was 81 nM and the Kd (Yes SH3 domain; [2]) was 1740 nM.
For “R6E^Rh: rhodium(II) metallopeptide based on Src-family SH3-binding sequence (VSL12), rhodium at residue 6 (VSLAREPLPPLPN; N-terminal acetyl, C-terminal amide)”, the Kd (Lyn SH3 domain) was 152 nM, the Kd (Hck SH3 domain) was 51 nM and the Kd (Lck SH3 domain) was 3790 nM.
